Reference: PMC8907715, “Selection and identification of high‐affinity aptamer of Kunitz trypsin inhibitor and their application in rapid and specific detection”

T1: Kunitz trypsin inhibitor (KTI) (UniProt P01070 25-205)
T1 sequence: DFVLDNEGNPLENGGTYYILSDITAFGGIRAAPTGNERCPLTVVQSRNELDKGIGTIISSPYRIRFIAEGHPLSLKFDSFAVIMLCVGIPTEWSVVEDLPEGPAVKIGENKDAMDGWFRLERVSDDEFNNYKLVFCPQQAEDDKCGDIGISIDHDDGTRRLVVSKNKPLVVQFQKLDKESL

T2: Kunitz trypsin inhibitor (KTI) (UniProt P01070)
T2 sequence: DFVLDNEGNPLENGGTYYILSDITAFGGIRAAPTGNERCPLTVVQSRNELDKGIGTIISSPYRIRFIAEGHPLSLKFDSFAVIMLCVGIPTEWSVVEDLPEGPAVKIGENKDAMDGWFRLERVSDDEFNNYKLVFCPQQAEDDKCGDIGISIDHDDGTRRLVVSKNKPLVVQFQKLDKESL

B1: Akti-5 (ssDNA)
DNA: CTTCGTATCCTGTGCTGCAGTTGTTTTTAAGTGCTGGGAG

Target: T1, Kunitz trypsin inhibitor (KTI)
Assay: GO fluorescence assay; text gives 52.6 ± 11.4; FAM-aptamer 0-600 nM with GO 60 min, then 1 uM KTI 2 h at room temperature in the dark; assay buffer, salt and pH not stated (oligos dissolved in TE pH 8.0)
Conditions: protein: commercial; label: 5'-FAM

Molecule	Kd
B1	52.5 ± 11.3 nM

Target: T2, Kunitz trypsin inhibitor (KTI)
Assay: GO fluorescence assay
Conditions: FAM-aptamer 0-600 nM with GO 60 min, then 1 uM KTI 2 h at room temperature in the dark; assay buffer, salt and pH not stated (oligos dissolved in TE pH 8.0)

Molecule	Kd
CCAACCTGTGGCATTTGGTAACTTGATCTTACGGTGTTCG [Akti-10]	22.6 nM
TGTACCGCCCACCTGCCGCTAACGGCGGTGCTGCGGTGCG [Akti-28]	164 nM
CTGGTGTTTTCTTTACGCATAACAAGGCCCCTGAGAGGCT [Akti-9]	134 nM
TCTGGCTTCTGATCTGATGTTTTTACTATCGGTATTTCTA [Akti-15]	67.9 nM
GGTCGTGAGGCCCACCGCTGAGCTCTAGTATCGCTCGGCG [Akti-11]	116 nM
